In this experiment the target is T1, epithelial cell adhesion molecule (EpCAM) on EpCAM-expressing MCF-7 cells (human, UniProt P16422 24-314).
T1 construct: whole, on cells; also called cellular EpCAM; EpCAM+ MCF-7 cells
T1 sequence (looked up): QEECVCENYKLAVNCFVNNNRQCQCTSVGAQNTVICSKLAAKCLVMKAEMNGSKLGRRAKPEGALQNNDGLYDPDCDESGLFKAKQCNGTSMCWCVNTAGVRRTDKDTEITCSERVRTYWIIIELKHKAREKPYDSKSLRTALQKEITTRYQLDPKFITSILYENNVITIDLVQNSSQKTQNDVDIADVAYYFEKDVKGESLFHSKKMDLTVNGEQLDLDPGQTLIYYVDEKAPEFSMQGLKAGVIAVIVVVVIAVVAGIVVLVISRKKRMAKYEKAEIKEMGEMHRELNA
Kind of experiment: flow cytometry on EpCAM+ MCF-7 cells. A general note: A flow cytometer gives signals particle by particle.

B1: CSANs displaying only the non-binding control domain (1DD-FnNT-v4) (designed binder)
chain: MGEQKLISEEDLGGSGGGSGGGISLIAALAVDRVIGMENAMPWNLPADLAWFKRNTLNKPVIMGRHTWESIGRPLPGRKNIILSSQPGTDDRVTWVKSVDEAIAAAGDVPEIMVIGGGRVYEQFLPKAQKLYLTHIDAEVEGDTHFPDYEPDDWESVFSEFHDADAQNSHSYSFEILERRGGISLIAALAVDRVIGMENAMPWNLPADLAWFKRNTLNKPVIMGRHTWESIGRPLPGRKNIILSSQPGTDDRVTWVKSVDEAIAAAGDVPEIMVIGGGRVYEQFLPKAQKLYLTHIDAEVEGDTHFPDYEPDDWESVFSEFHDADAQNSHSYSFEILERRGELGGSGGGGSGGGGSGGGGSGGGGSGGGGSGGGGSGGGGSGGGGSGGASSSDSPRNLEVTNATPNSLTISWDAPAVTVRYYRITYGETGGNSPSQEFTVPGSKSTATISGLKPGQDYTITVYAVTGRDGSPASSKPISINYRTEIDKPSQGSHHHHHH
notes: Nanoring oligomerized with bis-methotrexate; control; also called 1DD-FnNT-v4 CSANs
With B1, the binding result is recorded as “no binding”.

The record behind these values is patent publication US20180251524A1 (REGENTS OF THE UNIVERSITY OF MINNESOTA, published 2018).
